Results taken from the supplement of paper PMC10567573.
± gives the standard deviation.

Experiment: protein stability index of a GFP-peptide fusion (GPS, HEK-293T) (PSI 1-6); higher = more stable
Conditions: c terminus: a fixed tail appended
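Note: 24-mer peptide tiles fused after GFP, lentivirally expressed, FACS-sorted into six equal bins by GFP/DsRed ratio, decoded by Illumina sequencing, PSI is the read-weighted mean bin number.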

Sequence	protein stability index (treatment: DMSO)	protein stability index (treatment: MLN4924 1 uM, 8 h)
CPTEPPDDSCQDQPGTNCALAIKV [ADAMTSL2]	4.95 ± 0.31	5.03 ± 0.41
EKYGAVREVILKELAEATWCGIST [ZBED1]	2.97 ± 0.36	2.68 ± 0.35
PVAAATAAEGEGSPPAVAAVAGPP [ANKRD17]	5.54 ± 0.19	5.54 ± 0.094
ERCLSCILAQQPDRLRDEELAELE [TRADD]	4.41 ± 0.39	4.19 ± 0.51
PFETREPPPAYEPPAPAPLPPPSA [SCAMP3]	4.99 ± 0.22	5.08 ± 0.41
HTFRATFQEPLYPALRLWEGAISI [TRIM14]	2.85 ± 0.57	2.69 ± 0.71
GRHAQTVETLLRHGAHINLQSLKF [RIPK4]	2.34 ± 0.14	2.65 ± 0.45
EDDPSVLYVSLHRYDHGTFFPMGD [HDAC6]	2.29 ± 0.31	2.37 ± 0.3
VLSYLGLLSQEKLQEQHLSSPQGV [BCL2L13]	2.29 ± 0.31	2.32 ± 0.38
KVKRSLRQARKKGRHLELANQKLS [CCDC3]	4 ± 0.26	4.39 ± 0.45
NIGINGNHSLETCETTLFALRMAT [PTGFR]	2.34 ± 0.21	2.33 ± 0.34
EGYAHLTHLLMGLASGRIILILEG [HDAC6]	2.91 ± 0.56	3.09 ± 0.041
PAVDLNQVLNETRNQYEALVETNR [KRT33B]	3.39 ± 0.36	3.87 ± 0.74
TRCKSSEEKKPGELKRLVESRRQQ [TRIM39]	5 ± 0.32	5.02 ± 0.27
PLPAAAVVHVSFPEVTSALLESLN [ZBTB22]	2.41 ± 0.25	2.27 ± 0.26
MINLRRLLLSHIHASSYISPEKEE [PRAME]	2.41 ± 0.26	2.63 ± 0.57
DESLTDLEAQPYEAVFLRAVKLYN [P3H4]	2.58 ± 0.21	2.71 ± 0.36
SDTEAQCEVMQEIVDQVLEEDFDS [INTS3]	5.56 ± 0.091	5.42 ± 0.34
MDRRSRAQQWRRARHNYNDLCPPI [GNAS]	2.92 ± 0.19	3.13 ± 0.3
CETVTCCLFSERDAAGAPRDASDP [SMAD6]	4.49 ± 0.25	4.62 ± 0.12
QQTPVGTPKDKRVSNTPLRTVDGS [PALM]	5.07 ± 0.13	5.03 ± 0.15
ELRPRRGRCGPQAARAAGRDVAAE [POMT2]	3.58 ± 0.37	3.67 ± 0.086
FFTVEFGLCKQDGQLRVFGAGLLS [TPH1]	2.73 ± 0.57	3.09 ± 1.2

Sequence	protein stability index (treatment: DMSO)	protein stability index (treatment: MLN4924 1 uM, 8 h)
AGSEQKGQIIKDIDSGSPAEEAGL [PDZK1]	5.61 ± 0.11	5.26 ± 0.27
LYPFQIHSIALSTFASLIGPFGGF [CDS1]	3.36 ± 0.62	3.09 ± 0.36
RELKAKLSGVEEELQRTKQEVLSL [SASS6]	4.47 ± 0.41	4.46 ± 0.22
FDFERSGLQHAPEPDAADGPYDPN [SMAD6]	5.37 ± 0.29	5.5 ± 0.41
QRINTYVFVGNQLIPQPLDSEEDE [PCMTD1]	4.32 ± 0.25	4.37 ± 0.15
KREREKEDIALNKHRSRRKWCFWN [RHOBTB1]	2.65 ± 0.29	3.07 ± 0.51
KQYKAVVYSNTIQSIIAIIRAMGR [GNAI1]	1.95 ± 0.32	2.21 ± 0.052
DCQAGLNFADEDEAQAFRALVQEK [WAS]	5.17 ± 0.22	5.08 ± 0.16
TDSDDDFDMSRYSSSGYSSAEINQ [FAM219A]	5.04 ± 0.21	5.22 ± 0.37
CTWSIFQSIEYAGQQDQVKLHDFF [PPEF2]	2.54 ± 0.62	2.37 ± 0.46
LIWVVGPVLAVVFIICIVIAILLY [PTPRD]	2.35 ± 0.21	2.15 ± 0.29
NLAQDPQCKEWQVLMCGFPFLLLF [TMEM120A]	2.5 ± 0.61	2.35 ± 0.61
SLLSKARGIDSSSVKLRGSSLFMD [WEE1]	2.75 ± 0.2	2.49 ± 0.19
EDNLSLVCLPRSEDDDCDDDDDDD [DRICH1]	5.48 ± 0.42	5.51 ± 0.075
KVEEEIVTLRQVLAAKERHCGELK [TPD52L2]	3.95 ± 0.3	4.21 ± 0.14
DPNTAAGWLSVSDDLTSVTNHGYR [TRIM35]	4.32 ± 0.15	4.31 ± 0.13
HLAVDKNTTCVGRYPVCKFPSLQV [FEM1C]	2.46 ± 0.25	2.44 ± 0.26
ECQYYIDKLEYLDEKQRDPRIEAS [NET1]	4.12 ± 0.13	4.04 ± 0.19
EVNVLNDMRDTPLHRAAFTGRKIC [OSBPL1A]	3.19 ± 0.089	3.26 ± 0.31
TDIDIDTLCAVLERDTLSIRESRL [BTBD1]	2.84 ± 0.2	3.15 ± 0.37
TAAASRERQEEQSAAIHISETLEQ [EPB41L3]	5.5 ± 0.061	5.4 ± 0.52
IDNAADLLIFGKELSAIGSDTTPL [SNX8]	3.22 ± 0.12	3.18 ± 0.48
NYTNPLKVQTVIILGKVILWILHL [TMEM192]	2.08 ± 0.19	2.15 ± 0.24

Sequence	protein stability index (treatment: DMSO)	protein stability index (treatment: MLN4924 1 uM, 8 h)
CMYEHGEDTHQSPEPEDEPGGPGA [RSPH3]	5.42 ± 0.29	5.51 ± 0.17
AMLKALLGSKHKVCMDLRANLKQV [TNNI2]	2.42 ± 0.18	2.33 ± 0.43
LGPESWQQIAMDPEEVKSLDSNGA [BCL2L13]	5.16 ± 0.16	5.24 ± 0.21
KCFSCNSNLHRHQRTHTGEKPYKC [ZNF263]	3.5 ± 0.1	3.45 ± 0.15
NRPIETYQVHDYLRSKLCSLYEND [PPP2R2B]	2.97 ± 0.084	3.22 ± 0.16
TQRPAMVQTEDQYQFSYRAALEYL [PTPRD]	2.91 ± 0.35	3.06 ± 0.31
RQVRDKTLKRGYFQKSLVLISKLP [DENND6A]	2.27 ± 0.15	2.36 ± 0.41
MMDSRTSQQLQLIDEQDSYIQSRA [STX5]	4.77 ± 0.15	4.74 ± 0.076
REEEKTFWKKYRTFWKEDKAFWKE [CCDC70]	2.57 ± 0.2	2.75 ± 0.22
FETQMKTLAQFPETLLGDPEKRTQ [KCNA4]	4.79 ± 0.16	4.84 ± 0.21
CLMIAAYKGHTDVVRYLLEQRADP [FEM1B]	2.27 ± 0.14	2.35 ± 0.17
RAFVSIQEEMAEDPLTYKSRLMVV [RHOBTB2]	2.74 ± 0.39	2.18 ± 0.4
EPSSPASLTDSVNHHSPGGSSDAS [ESRRG]	5.47 ± 0.15	5.51 ± 0.15
GVFKFLRSEAVAQLWGQKKKNSNM [ELF3]	2.83 ± 0.18	2.41 ± 0.33
AASPGEAPAASEGAAAPATPTPVA [SNAP91]	5.38 ± 0.15	5.53 ± 0.25
STRWEVIAEDGTKEIESQGSIPGF [TAF7L]	4.58 ± 0.067	4.54 ± 0.3
ADGVKPQTNSTKNSAAATSPKGTL [CAMK2B]	5.24 ± 0.14	5.4 ± 0.3
QKVATLEKRNRQLRERVKKVKRSL [CCDC3]	4.08 ± 0.2	4.89 ± 0.11
DLPSSTPVANSGTKPKTTAIQGIS [DLC1]	4.75 ± 0.2	4.93 ± 0.065
PLLLRLPRICQRNLMSLLMAVRPS [FANCE]	2.45 ± 0.34	2.56 ± 0.062
DAPEQRLRVMTTNIRSARGNNPNG [ELOA2]	4.84 ± 0.23	4.95 ± 0.23
LLGEPLAGPELDEMLREVDLNGDG [CABP4]	5.18 ± 0.21	5.36 ± 0.21
TISSWRNDRMSTRHDGYATNDGNH [RBMY1A1]	3.99 ± 0.23	4.02 ± 0.086

Sequence	protein stability index (treatment: DMSO)	protein stability index (treatment: MLN4924 1 uM, 8 h)
IDLATWNFQFLPQVNGHPDPFDEI [PTPN9]	2.43 ± 0.22	2.54 ± 0.35
MLQRAIAYQHSGHLESKDINQEEL [C10orf62]	3.96 ± 0.19	4.14 ± 0.24
ASKDPREVREARDHKEPKEEINKN [EHMT1]	5.5 ± 0.2	5.66 ± 0.29
LKGVKQACCEFLESQLDPSNCLGI [KLHL12]	2.66 ± 0.66	2.51 ± 0.29
EEVSTLNAQIPELKSDLEKASALN [CD207]	5.08 ± 0.19	5.24 ± 0.17
AAFCPQLDDSTVARELAITDSEHS [RETREG3]	5.26 ± 0.16	5.14 ± 0.16
LLYTSLPDFCHKFLPGYVGGIQEG [DHCR7]	2.58 ± 0.58	2.71 ± 0.63
VQQDPALSSNREAHQHRDKMQQSK [CSNK1G3]	5.16 ± 0.54	5.27 ± 0.21
RFFLGDLCSRQDLYPALKGVNTVF [NSDHL]	2.19 ± 0.26	2.14 ± 0.54
TSYTRQACLVSCFQQLMVETCSCG [SCNN1D]	2.48 ± 0.53	2.31 ± 0.27
FDVHPPLGKMLIGLAGYLSGYDGT [POMT2]	2.18 ± 0.19	2.17 ± 0.13
GAHSNAPITAHAEVEVVEEAKCCC [CSNK1G1]	4.79 ± 0.22	5.23 ± 0.21
HHCDDHLSLYQLSLERGTALFAQV [RSAD1]	2.22 ± 0.66	2.03 ± 0.2
TVPGQALACGSNRFNKLGLDHLSL [NEK8]	2.44 ± 0.34	2.45 ± 0.12
GGEFQCGLEAASVYSDHTNTNNLT [RNF180]	2.42 ± 0.36	2.42 ± 0.29
NKISRFQAPISAPEYTYGISNIDT [MFF]	3.42 ± 0.28	3.56 ± 0.45
RGDSVKVENPSTASHSLSPSEHVQ [ZNF649]	5.08 ± 0.37	5.19 ± 0.6
GFAVKALWGRTQEEAEELAKEMSV [GFOD1]	4.24 ± 0.13	4.07 ± 0.3
SCPNGMSAENGLEKSGFSQHQNKS [DLC1]	4.86 ± 0.17	5.06 ± 0.11
TLHQRTHTEERPFKCNYCGKSFRQ [ZNF449]	2.55 ± 0.33	2.91 ± 0.51
